Legend:
[1] = biological target: T1, 人血清白蛋白(human serum albumin，HSA) (human, UniProt P02768 25-609); assay: indirect ELISA, HSA as cross-reaction antigen
T1 construct: Used at 40 mg/ml as the cross-reaction antigen; also called HAS

[2] = biological target: 人甲胎蛋白(human alpha fetoprotein，hAFP) (human) (UniProt P02771); assay: ELISA titre of ascites antibody on hAFP
Sequence of UniProt P02771 (P02771 19-609): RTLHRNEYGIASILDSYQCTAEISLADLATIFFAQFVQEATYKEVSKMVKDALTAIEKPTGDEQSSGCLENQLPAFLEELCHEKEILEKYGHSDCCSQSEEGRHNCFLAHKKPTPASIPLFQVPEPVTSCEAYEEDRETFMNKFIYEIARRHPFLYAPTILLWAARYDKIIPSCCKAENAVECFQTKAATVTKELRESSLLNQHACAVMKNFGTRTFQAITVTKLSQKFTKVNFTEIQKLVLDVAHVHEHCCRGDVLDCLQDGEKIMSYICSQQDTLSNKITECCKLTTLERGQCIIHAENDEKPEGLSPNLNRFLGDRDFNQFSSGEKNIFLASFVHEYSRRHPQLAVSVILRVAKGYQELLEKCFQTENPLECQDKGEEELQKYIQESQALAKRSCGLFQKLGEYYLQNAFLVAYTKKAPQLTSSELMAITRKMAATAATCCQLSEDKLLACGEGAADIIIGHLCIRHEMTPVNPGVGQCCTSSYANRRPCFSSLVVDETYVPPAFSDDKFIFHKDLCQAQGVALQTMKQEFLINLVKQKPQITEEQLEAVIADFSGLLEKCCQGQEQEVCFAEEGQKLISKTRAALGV

T1 sequence (P02768 25-609): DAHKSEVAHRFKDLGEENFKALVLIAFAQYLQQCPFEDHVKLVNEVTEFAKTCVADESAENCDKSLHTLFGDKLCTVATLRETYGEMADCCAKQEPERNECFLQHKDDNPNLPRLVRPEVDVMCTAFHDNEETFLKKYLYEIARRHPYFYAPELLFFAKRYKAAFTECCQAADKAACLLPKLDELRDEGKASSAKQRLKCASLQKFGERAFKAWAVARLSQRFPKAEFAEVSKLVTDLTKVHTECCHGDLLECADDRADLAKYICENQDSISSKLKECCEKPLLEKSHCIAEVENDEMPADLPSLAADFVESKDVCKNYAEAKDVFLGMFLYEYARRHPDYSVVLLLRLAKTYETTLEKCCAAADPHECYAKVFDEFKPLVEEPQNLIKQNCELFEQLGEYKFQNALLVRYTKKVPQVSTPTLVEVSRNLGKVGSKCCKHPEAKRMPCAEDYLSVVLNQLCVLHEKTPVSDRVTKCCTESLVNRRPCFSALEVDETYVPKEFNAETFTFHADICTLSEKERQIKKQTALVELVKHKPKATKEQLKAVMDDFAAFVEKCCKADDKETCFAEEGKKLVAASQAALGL

binding result [1]	腹水效价 [2]	Binder
no binding (tested: 40mg/ml)		单克隆抗体Ab3 (antibody, V domains shown, Mouse monoclonal IgG from hybridoma ascites, Protein G purified; HRP-labelled in the immunohistochemistry; also called Ab3-HRP) VH: VKLQESGAELVKPGASVKLSCTASGFNIKDTYMHWVKQRPEQGLEWIGGIDPANGKTKFDPKFQGKATITADTSSNTAYLHLSRLTSDDTAVYYCVRGQVGGRGWFAYWGQGTTVTVSS VL: DIQLTQSPSSLSASLGERVSLTCRASQEISGYLSWLQRKPDGTIKRLIYAASTLDSGVPKRFSGSRSGSDYSLTISSLESEDFADYYCLQYASYPYTFGGGTKL
	< 3e+07	单克隆抗体Ab4 (antibody, part only; not given: light chain variable region, constant regions, V domains shown, part only) VH: VKLQQSGPELVKPGASVTLSCKASGYTFTSYYIHWVKQRPGQELEWIGWIYPGNVNTKYNEKFKGKATLTADKSSSTAYMQLSSLTSEDSAVYFCARCSGRLYYAMDYWGQGTTVTVSS

— patent CN107022030A (GUANGDONG GUYING BIOTECHNOLOGY INDUSTRIAL RES INSTITUTE CO …, dated 2017)
